Laboratory results taken from patent publication US20100112601A1.

Biological target: PAC1 receptor expressed in Chinese hamster ovary (CHO) cells (UniProt P41586)
Experiment: cell-based or functional assay

Chain of UniProt P41586 (P41586 21-468 limits assumed): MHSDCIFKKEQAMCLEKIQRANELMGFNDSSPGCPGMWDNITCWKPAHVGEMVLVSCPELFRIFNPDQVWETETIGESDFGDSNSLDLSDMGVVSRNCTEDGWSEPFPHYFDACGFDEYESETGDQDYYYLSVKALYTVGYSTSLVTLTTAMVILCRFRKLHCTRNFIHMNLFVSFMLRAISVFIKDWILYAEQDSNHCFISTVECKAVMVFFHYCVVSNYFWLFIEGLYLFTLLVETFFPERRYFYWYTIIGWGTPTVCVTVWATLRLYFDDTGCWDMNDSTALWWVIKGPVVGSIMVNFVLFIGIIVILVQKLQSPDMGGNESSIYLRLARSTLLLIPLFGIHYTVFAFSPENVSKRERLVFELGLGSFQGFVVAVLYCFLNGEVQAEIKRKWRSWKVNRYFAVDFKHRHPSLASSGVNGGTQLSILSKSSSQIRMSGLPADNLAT

- inhibition of PACAP27-stimulated GTPγ-35S binding to membranes of PAC1-expressing CHO cells, IC50: 100 nM
Substance: PACAP(6-38)NH2 (from UniProt P18509 87-119) (peptide)
